For eight sequences, Kd and IC50 results are on record in the Immune Epitope Database (IEDB).

The target of one test is HLA-B*83:01. Put plainly: IEDB peptide-MHC binding, purified MHC/competitive/fluorescence; filed as Kd, often an IC50 or EC50 that approximates it; ≥ and ≤ were set here for values at or beyond the usual limits of such assays.
A further test concerns the target HLA-B*45:06. The test is described as above.
For the next test, the target named is HLA-B*15:42. The description is as above.
In a further test the target is HLA-A*24:02. The test is described as above. Conditions: source organism: Hepacivirus hominis.
For the next test, the target named is HLA-A*26:01. The description is as above.
A further test has as its target HLA-B*57:01. Briefly: IEDB peptide-MHC binding, purified MHC/direct/fluorescence; filed as Kd, often an IC50 or EC50 that approximates it; ≥ and ≤ were set here for values at or beyond the usual limits of such assays.
For the next test, the target named is HLA-A*29:02. Described as above. Conditions: source organism: West Nile virus strain PTRoxo.
The target in the next test is HLA-B*51:01. Described as above. Conditions: source organism: West Nile virus.
For a further test, the target named is HLA-A*25:01. The description is as above. Conditions: source organism: West Nile virus strain PTRoxo.
The next test concerns the target HLA-A*30:01. The description is as above. Particulars: source organism: West Nile virus strain PTRoxo.
The target in another test is HLA-B*15:01. The test is described as above.
A further test addresses HLA-A*80:01. The test is described as above.
The target of a further test is HLA-B*58:01. Described as above.
The target of the next test is HLA-B*44:02. The test is described as above. Particulars: source organism: West Nile virus strain PTRoxo.
The target in a further test is HLA-B*18:01. Described as above.
A further test deals with HLA-A*02:06. Briefly: IEDB peptide-MHC binding, purified MHC/competitive/fluorescence; filed as Kd, often an IC50 or EC50 that approximates it; ≥ and ≤ were set here for values at or beyond the usual limits of such assays. Conditions: source organism: Mycobacterium tuberculosis variant bovis BCG str. Pasteur 1173P2.
Another test addresses HLA-B*07:02. Described as above. Conditions: source organism: Mycobacterium tuberculosis variant bovis BCG str. Pasteur 1173P2.
The next test addresses HLA-A*68:02. The test is described as above. Particulars: source organism: Mycobacterium tuberculosis variant bovis BCG str. Pasteur 1173P2.
For the next test, the target named is HLA-A*26:03. The test is described as above. Particulars: source organism: Mycobacterium tuberculosis variant bovis BCG str. Pasteur 1173P2.
In another test the target is HLA-A*26:02. The description is as above. Particulars: source organism: Mycobacterium tuberculosis variant bovis BCG str. Pasteur 1173P2.
The next test deals with HLA-B*15:17. Put plainly: IEDB peptide-MHC binding, purified MHC/direct/fluorescence; filed as Kd, often an IC50 or EC50 that approximates it; ≥ and ≤ were set here for values at or beyond the usual limits of such assays. Conditions: source organism: Mycobacterium tuberculosis.
The target of another test is HLA-B*40:01. The test is described as above. Particulars: source organism: Mycobacterium tuberculosis.
Another test deals with HLA-B*08:01. The test is described as above. Conditions: source organism: Mycobacterium tuberculosis str. Haarlem.
A further test addresses HLA-A*31:01. The description is as above. Particulars: source organism: Mycobacterium tuberculosis.
In the next test the target is HLA-A*02:01. The description is as above. Conditions: source organism: Mycobacterium tuberculosis.
In the next test the target is HLA-B*08:02. Described as above. Particulars: source organism: Mycobacterium tuberculosis str. Haarlem.
For another test, the target named is HLA-A*01:01. The test is described as above. Particulars: source organism: Mycobacterium tuberculosis.
The target in the next test is HLA-B*46:01. Described as above. Particulars: source organism: Mycobacterium tuberculosis.
The next test has as its target HLA-A*69:01. The description is as above. Particulars: source organism: Mycobacterium tuberculosis.
The target in the next test is HLA-B*27:05. Described as above.
For a further test, the target named is HLA-A*11:01. Described as above. Particulars: source organism: Mycobacterium tuberculosis.
The next test addresses HLA-B*08:03. Described as above. Particulars: source organism: Mycobacterium tuberculosis str. Haarlem.
The target of another test is HLA-B*48:01. The description is as above.
The target of another test is HLA-C*04:01. The description is as above. Conditions: source organism: Japanese encephalitis virus.
Another test concerns the target HLA-B*40:02. Briefly: IEDB peptide-MHC binding, cellular MHC/competitive/fluorescence; ≥ and ≤ were set here for values at or beyond the usual limits of such assays. Conditions: source organism: Homo sapiens.
A further test deals with HLA-C*14:02. Put plainly: IEDB peptide-MHC binding, purified MHC/competitive/fluorescence; filed as Kd, often an IC50 or EC50 that approximates it; ≥ and ≤ were set here for values at or beyond the usual limits of such assays. Conditions: source organism: Methylibium petroleiphilum PM1.
A further test addresses HLA-B*15:02. The test is described as above. Particulars: source organism: Methylibium petroleiphilum PM1.
For another test, the target named is HLA-B*27:20. Described as above.
In test [1] the target is HLA-C*06:02. The description is as above. Particulars: source organism: Methylibium petroleiphilum PM1.
For the next test, the target named is HLA-B*40:13. The test is described as above. Particulars: source organism: Methylibium petroleiphilum PM1.
Another test has as its target HLA-C*07:02. Briefly: IEDB peptide-MHC binding, purified MHC/direct/fluorescence; filed as Kd, often an IC50 or EC50 that approximates it; ≥ and ≤ were set here for values at or beyond the usual limits of such assays. Conditions: source organism: Methylibium petroleiphilum PM1.
Another test addresses HLA-C*15:02. The description is as above. Particulars: source organism: Methylibium petroleiphilum PM1.
Test [2] deals with HLA-C*06:02. Described as above. Conditions: source organism: human gammaherpesvirus 4.
Another test deals with HLA-B*73:01. The description is as above. Particulars: source organism: Burkholderia mallei ATCC 23344.
Where [3] appears, read: source organism: Hepacivirus hominis.
The mark [4] stands for this setting: source organism: West Nile virus.
[5] abbreviates: source organism: West Nile virus strain PTRoxo.
The mark [6] stands for this setting: source organism: Mycobacterium tuberculosis.
The mark [7] stands for this setting: source organism: Methylibium petroleiphilum PM1.
The mark [8] stands for this setting: source organism: human gammaherpesvirus 4.
The mark [9] stands for this setting: source organism: Burkholderia mallei.

Regarding LLPRRGPRL, the Kd is at least 5 µM with HLA-B*83:01 (setting [3]), at least 5 µM with HLA-B*45:06 (setting [3]), at least 5 µM in the test with HLA-B*15:42 (setting [3]) and 90 nM with HLA-A*24:02.

Turning to EIPDVLNSL, the Kd with HLA-A*26:01 (setting [4]) was 277 nM; with HLA-B*57:01 (setting [5]), at least 20 µM; in the test with HLA-A*29:02, at least 20 µM; in the test with HLA-B*51:01, at least 20 µM; with HLA-A*25:01, 23 nM; with HLA-A*30:01, at least 20 µM. The Kd with HLA-B*15:01 (setting [5]), with HLA-A*80:01 (setting [5]), in the test with HLA-B*58:01 (setting [5]), with HLA-B*44:02 and with HLA-B*18:01 (setting [5]) was at least 20 µM in each case.

For the sequence AVFDSFVER, the Kd is 2.3 nM in the test with HLA-A*02:06; at least 20 µM with HLA-B*07:02; at least 20 µM in the test with HLA-A*68:02; at least 20 µM with HLA-A*26:03; at least 20 µM with HLA-A*26:02; at least 20000 nM with HLA-A*26:01 (source organism: Mycobacterium tuberculosis variant bovis BCG str. Pasteur 1173P2). The Kd was at least 20 µM in the test with HLA-B*15:17; at least 20 µM with HLA-B*40:01; at least 20 µM in the test with HLA-B*08:01; at least 20 µM in the test with HLA-B*57:01 (setting [6]); 4 nM with HLA-A*31:01; at least 20 µM with HLA-A*02:01. Besides, the Kd with HLA-B*08:02 is at least 20 µM; with HLA-A*01:01 it was at least 20 µM; in the test with HLA-B*46:01, at least 20 µM; in the test with HLA-B*15:01 (setting [6]), at least 20 µM; with HLA-A*69:01 it was at least 20 µM; in the test with HLA-B*27:05 (setting [6]) it was at least 20000 nM. For the same sequence, the Kd with HLA-A*11:01 is 9 nM; with HLA-B*58:01 (setting [6]), at least 20 µM; with HLA-B*08:03, at least 20 µM; in the test with HLA-B*18:01 (setting [6]) it was at least 20 µM; in the test with HLA-B*48:01 (setting [6]), at least 20 µM.

Take QTDNQLAVF: the Kd with HLA-A*80:01 (setting [4]) and with HLA-C*04:01 was at least 20 µM throughout.

KEQSPEPHL showed an IC50 in the test with HLA-B*40:02 of 1900 nM.

Regarding FQMGGIGPM, the Kd in the test with HLA-C*14:02 was 13.2 nM; with HLA-B*83:01 (setting [7]) it was at least 5 µM; with HLA-B*45:06 (setting [7]), at least 5 µM; in the test with HLA-B*15:02, 14.4 nM; in the test with HLA-B*15:42 (setting [7]), at least 5 µM; in the test with HLA-B*27:20 (setting [7]) it was 0.3 nM. Besides, the equilibrium dissociation constant (Kd) with HLA-C*06:02 [1] was 513 nM; in the test with HLA-B*40:13 it was 8.8 nM; with HLA-C*07:02 it was 448 nM; with HLA-C*15:02 it was 2180 nM.

For RRRKGWIPL, the Kd with HLA-B*83:01 (setting [8]) was at least 5 µM; with HLA-B*45:06 (setting [8]), at least 5 µM; in the test with HLA-B*15:42 (setting [8]), at least 5 µM; in the test with HLA-B*27:20 (setting [8]), 0.2 nM; with HLA-C*06:02 [2], at least 20 µM.

In the case of RRHGMAWRQ, the results for the Kd with HLA-B*73:01, with HLA-B*27:05 (setting [9]) and with HLA-B*48:01 (setting [9]) were 12 µM, 213 nM and at least 20 µM, respectively.
